± gives the standard deviation.
Test: protein stability index of a GFP-peptide fusion (GPS, HEK-293T) (PSI 1-6); higher = more stable
[1] = treatment: DMSO, c terminus: a fixed tail appended
[2] = treatment: MLN4924 1 uM, 8 h, c terminus: a fixed tail appended
[3] = treatment: DMSO, c terminus: native
[4] = treatment: MLN4924 1 uM, 8 h, c terminus: native
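Note: 24-mer peptide tiles fused after GFP, lentivirally expressed, FACS-sorted into six equal bins by GFP/DsRed ratio, decoded by Illumina sequencing, PSI is the read-weighted mean bin number.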

Row | Sequence | protein stability index [1] | protein stability index [2] | protein stability index [3] | protein stability index [4]
1 | LQIELGKCKAEHDQLLLNYAKKES [LMNB1] | 3.29 ± 0.24 | 3.33 ± 0.33 |  | 
2 | GHLEIVKYLVEHKADLEVSNRHGH [FEM1C] | 2.7 ± 0.45 | 2.94 ± 0.26 |  | 
3 | HTLAVMNDRLYAIGGNHLKGFSHL [KLHL14] | 2.22 ± 0.12 | 2.18 ± 0.11 |  | 
4 | LLADVKGARAALNEIESRHRELLR [STX11] | 3.03 ± 0.23 | 3.3 ± 0.41 |  | 
5 | ASVPKVETVKSDNKDDDIDIDAI [EIF5] |  |  | 5.59 ± 0.17 | 5.53 ± 0.22
6 | LTPGFSDNAIMLFSPDFTLRNTLK [FAN1] | 2.4 ± 0.3 | 2.65 ± 0.54 |  | 
7 | VGGKIVGSLCAIAGVLTIALPVPV [KCNA4] | 3.78 ± 0.78 | 2.76 ± 0.46 |  | 
8 | IDKNRRKSCQACRLRKCYEVGMVK [ESR2] | 2.75 ± 0.34 | 3.08 ± 0.17 |  | 
9 | RKKSKPKKCVKKFVEYCDVNNDKS [SMOC2] | 3.52 ± 0.22 | 3.93 ± 0.58 |  | 
10 | ERSLVLDRLASNVAKRKSSMPQKF [IKZF1] | 3.6 ± 0.23 | 3.84 ± 0.29 |  | 
11 | ILLVGYPPFWDEDQHRLYKQIKAG [CAMK2A] | 2.29 ± 0.32 | 2.24 ± 0.19 |  | 
12 | RRRPRQKEAGLSQSHDDLSNATAT [C2CD2L] | 5.23 ± 0.19 | 5.26 ± 0.24 |  | 
13 | SQVSWEQDLKLFLQEPGVFSPTPP [FCHSD1] | 3.36 ± 0.4 | 3.61 ± 0.1 |  | 
14 | VFKCSVSRETECSRVGKQSFIITL [CARM1] | 2.65 ± 1.1 | 2.61 ± 0.67 |  | 
15 | FVEYCDVNNDKSISVQELMGCLGV [SMOC2] | 2.39 ± 0.86 | 2.46 ± 0.38 |  | 
16 | LSEDYNKMTPVKNYQAHQSRVTMI [WDFY2] | 2.71 ± 0.12 | 2.83 ± 0.13 |  | 
17 | MAGLQRLASHLPVGVMLPHNTTEA [ZC2HC1C] | 3.5 ± 0.13 | 3.36 ± 0.27 |  | 
18 | RTRDYKKTSLAPYVKVFEHFLENL [PRIM1] | 2.11 ± 0.4 | 2.48 ± 0.54 |  | 
19 | LSRHSKGLQILGHTLRASMRELGL [KCNA4] | 2.25 ± 0.21 | 2.25 ± 0.024 |  | 
20 | FSHEILRDEESFFGERRIPRGRRI [ALKBH7] | 3.34 ± 0.4 | 3.84 ± 0.4 |  | 
21 | QIKRKARNEGRNRRRQQVLPLKS [CDKL4] |  |  | 2.87 ± 0.24 | 3.44 ± 0.35
22 | HSGFEDELSEVLENQSSQAELKEA [CHGA] | 5.5 ± 0.29 | 5.27 ± 0.33 |  | 

Row | Sequence | protein stability index [1] | protein stability index [2] | protein stability index [3] | protein stability index [4]
23 | KLIDRLEKKDLKLEPPEEEIIEGN [NECAB1] | 4.88 ± 0.32 | 4.8 ± 0.19 |  | 
24 | RRKSEAGSGAASSSGEDKENDGFV [CDC25B] | 5.42 ± 0.29 | 5.49 ± 0.18 |  | 
25 | RVRTVLNEKQLHTLRTCYAANPRP [ISL2] | 2.74 ± 0.27 | 2.96 ± 0.2 |  | 
26 | IDIIPNPQERTLTLVDTGIGMTKA [HSP90AB1] | 3.55 ± 0.19 | 3.43 ± 0.51 |  | 
27 | GYSPNGRDANGWTLLHFSAARGKE [ASB7] | 2.91 ± 0.47 | 2.94 ± 0.19 |  | 
28 | PGCGSVPGSGSGPGPGSGPGSGPG [SPAG8] | 4.96 ± 0.062 | 4.99 ± 0.25 |  | 
29 | LSSAPSSRAEPIRTTVFQYPVGWP [ZMAT5] | 2.86 ± 0.22 | 2.94 ± 0.19 |  | 
30 | LLDALSPEQLVLTLLEAEPPHVLI [ESR2] | 2.55 ± 0.57 | 2.08 ± 0.18 |  | 
31 | AALSERGQAEEELIKAKSQARLEE [LRRC45] | 5.28 ± 0.55 | 5.39 ± 0.46 |  | 
32 | PDVTQLTPPSHDLTDNIFPRLVC [ANKRD17] |  |  | 2.45 ± 0.28 | 2.4 ± 0.25
33 | LPECLEYEEEFDYETESETESEIE [GNAS] | 5.3 ± 0.15 | 5.26 ± 0.23 |  | 
34 | EECKDRERPMYGRDSAYQSITHYR [EMD] | 4.18 ± 0.43 | 4.13 ± 0.14 |  | 
35 | IDPETKKHIPYREHKSLTGTARYM [CSNK1G3] | 3.38 ± 0.45 | 3.72 ± 0.18 |  | 
36 | VNIEWHRFRFGQDQLLLATGLNNG [WSB1] | 2.76 ± 0.41 | 2.58 ± 0.45 |  | 
37 | QNAALRGELSQARGQEPARADQLC [PRPH] | 5.12 ± 0.23 | 5.02 ± 0.37 |  | 
38 | DPSNRSFFSEIISSVSDVKFSHSG [PPP2R2C] | 3.43 ± 0.25 | 3.44 ± 0.29 |  | 
39 | RTSVGVAVLGGFLYAVGGQDGVSC [KLHL20] | 2.37 ± 0.17 | 2.45 ± 0.38 |  | 
40 | TGFIFQKVGKLAATAVGGGFFLLQ [FUNDC2] | 2.36 ± 0.21 | 2.09 ± 0.51 |  | 
41 | EETKKLANKYLVEDVLLLNFEEMR [KLHL14] | 3.23 ± 0.23 | 3.18 ± 0.27 |  | 
42 | GCDPLVKPVGRQACDLQPCPTEPP [ADAMTSL2] | 4.2 ± 0.049 | 4.54 ± 1.2 |  | 
43 | PEEKIWEELSVLEVFEGREDSILG [MAGEA3] | 4.6 ± 0.44 | 4.67 ± 0.11 |  | 
44 | QQLEEELLRAKIEVEKLKAIRLRH [RAD54B] | 5.32 ± 0.25 | 5.43 ± 0.27 |  | 

Row | Sequence | protein stability index [1] | protein stability index [2] | protein stability index [3] | protein stability index [4]
45 | KKQAGRPKGSKGKEKDSPFKPKLY [RBBP5] | 3.74 ± 0.26 | 3.91 ± 0.28 |  | 
46 | APSPSPVTPAQNNLLQPNFEAAFG [SNAP91] | 4.43 ± 0.089 | 4.54 ± 0.38 |  | 
47 | TCQRVNGIKVQNGGIVTDTPASNH [SLC19A2] | 4.08 ± 0.34 | 4.22 ± 0.17 |  | 
48 | RQAELAIERCIFPERIYQGSSGSY [PI4K2A] | 2.72 ± 0.39 | 2.82 ± 0.28 |  | 
49 | NTRVRELAQAAGFAPQTGARPSET [DNAAF3] | 4.71 ± 0.11 | 4.79 ± 0.25 |  | 
50 | REESLPNLLQYVRMPLLTPRYITD [KLHL12] | 2.8 ± 0.38 | 2.63 ± 0.34 |  | 
51 | DEKQRDPRIEASKVLLCHGELRSK [NET1] | 4.42 ± 0.21 | 4.63 ± 0.22 |  | 
52 | KLQVSQQEDITKSLLVTELGSSRT [IMPA1] | 4.18 ± 0.28 | 4.28 ± 0.25 |  | 
53 | SEMEEEKRQAVNKAVANMQGEMDR [ZMYND11] | 5.41 ± 0.25 | 5.42 ± 0.29 |  | 
54 | AEKSGEATDGARPQALPEPMQESK [CHGA] | 5.47 ± 0.3 | 5.48 ± 0.22 |  | 
55 | DSYCDALTRPEPVHEFCAGRECQP [ADAMTSL2] | 4.86 ± 0.1 | 4.57 ± 0.29 |  | 
56 | AGEVVCEAIKNEMNVMLKSSPVDL [IMPA1] | 3.67 ± 0.91 | 4.11 ± 0.25 |  | 
57 | LEISGIIMSRVNAYQQGVGYQMLG [PHTF1] | 2.81 ± 0.35 | 2.63 ± 0.51 |  | 
58 | LVENAKNFPQCVLEISDQEVLEWY [EFHC1] | 2.96 ± 0.23 | 2.87 ± 0.23 |  | 
59 | WEWSPAGLQSYQQALLRISLDKVQ [SERTAD3] | 2.48 ± 0.58 | 2.49 ± 0.69 |  | 
60 | STSGQPYPTSDQEGDPGSKQPRKK [LCOR] | 5.5 ± 0.13 | 5.42 ± 0.19 |  | 
61 | YPEQSKGFHKAGSMLPPVNFSIVP [SPATS1] | 2.65 ± 0.5 | 3.06 ± 0.69 |  | 
62 | GGAGSGFGGGYGGGLGGGYGGGLG [KRT13] | 3.35 ± 0.2 | 2.85 ± 0.2 |  | 
63 | LFLRCSLRHKDEEEEDDDDIHITA [DRICH1] | 3.03 ± 0.35 | 3.23 ± 0.28 |  | 
64 | AILSLDQIKAIRGSNEYTEGPSVV [SPRY1] | 3 ± 0.072 | 2.98 ± 0.3 |  | 
65 | RPDRSSQGGSLPSEEKGHPQEESE [CHGB] | 5.75 ± 0.27 | 5.48 ± 0.38 |  | 
